# Experimental data: PMC10465345, “Development of a growth-coupled selection platform for directed evolution of heme biosynthetic enzymes in Corynebacterium glutamicum” (Frontiers in Bioengineering and Biotechnology, 2023)
# Residue numbers refer to the chain shown, from its start. In names and notes the source's numbering stands.
# B1: CpfC (coproporphyrin ferrochelatase) (Corynebacterium glutamicum ATCC 13032) (protein)
# chain: MNERTSDAFDALLVLSFGGPEGHEEVRPFLENVTHGRGIPPERLDEVAVHYHHFGGISPINALNREIIANVEKELASRDHKLPVYFGNRNWKPFDNEAAEQMADDGVKNALVLATSAWGGYSGCRQYQEDIQGMIKHLESQGQSITFTKLRQFYDHPRFVSTMAQLVQDSYAKLPDELRDEARLVFTAHSIPLTADNAAGTPEDGSLYSTQVKEASALIAEAVGVSDFDVVWQSRSGSPHTPWLEPDIVDHAVELNEKGQKALVVCPVGFISDHMEVIWDLDSELMEEAEKRNMVVERVATVGPTDEFAALVVDLIEEAELKRVIERLGKLPARGSSVNGAPCGDGCCGTAKHKTARVNPNARSAAPAAN
# notes: heterologously expressed in E. coli BL21, purified
# B2: CpfC (coproporphyrin ferrochelatase) (Corynebacterium glutamicum ATCC 13032; E100D) (protein)
# chain: B1 chain with E100D
# notes: as for B1
# B3: CpfC (coproporphyrin ferrochelatase) (Corynebacterium glutamicum ATCC 13032; E100D/E31V) (protein)
# chain: B1 chain with E31V, E100D
# notes: as for B1
# B4: CpfC (coproporphyrin ferrochelatase) (Corynebacterium glutamicum ATCC 13032; T194S) (protein)
# chain: B1 chain with T194S
# notes: as for B1
# B5: CpfC (coproporphyrin ferrochelatase) (Corynebacterium glutamicum ATCC 13032; E31V) (protein)
# chain: B1 chain with E31V
# notes: as for B1
# B6: CpfC (coproporphyrin ferrochelatase) (Corynebacterium glutamicum ATCC 13032; E181G) (protein)
# chain: B1 chain with E181G
# notes: as for B1
# Substrate: CC1=C(CCC(=O)O)c2cc3nc(cc4[nH]c(cc5[nH]c(cc1n2)c(C)c5CCC(=O)O)c(CCC(=O)O)c4C)C(CCC(=O)O)=C3C
# Experiment: purified protein
# Format: biochemical, Corynebacterium glutamicum
# Conditions: ferrous ammonium sulfate 100 uM, Tris-HCl pH 8.0, 3.3% Tween 20, 5 mM glutathione, 30 °C
Protein,Km,kcat [s⁻¹],kcat/Km [M⁻¹ s⁻¹]
B1,15.17 ± 1.84 × 10^-3 mM,0.26 ± 0.09,17430 ± 110
B2,9.40 ± 1.50 × 10^-3 mM,0.36 ± 0.06,38100 ± 650
B3,9.78 ± 0.82 × 10^-3 mM,0.36 ± 0.04,37000 ± 4520
B4,11.63 ± 1.50 × 10^-3 mM,0.32 ± 0.06,27300 ± 4880
B5,8.26 ± 0.52 × 10^-3 mM,0.43 ± 0.01,52900 ± 1400
B6,10.04 ± 1.52 × 10^-3 mM,0.3 ± 0.04,30600 ± 4310
